± gives the standard error. Variants at the floor of the assay were thinned out.
B1: glmS ribozyme (parent)
chain: AUAAAAGCGCCAGAACUACAGAAAUGUAGUUGACGAGGAGGAGGUUUAUCGAAUUUUCGGCGGAUGCCUCCAAA

Experiments:
Settings in all cases: with glucosamine-6-phosphate
glucosamine-6-phosphate [1] = variants of: B1; assay: self-cleavage kobs at 640 uM GlcN6P; higher = faster cleavage; RNA array
Summary of the method: (§1)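 Glucosamine-6-phosphate in HEPES/KCl/Mg(OAc)2 buffer, at 40 μM to 10 mM, was flowed over barcoded ribozyme variants transcribed in situ by E. coli RNA polymerase on sequenced MiSeq chips. Tracking was through a hybridised Cy3 probe at 37 °C. kobs, kcat and KM came from exponential decay fits and weighted Michaelis–Menten fits of normalised per-tile medians.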

glucosamine-6-phosphate [2] = variants of: B1; assay: self-cleavage kobs at 10000 uM GlcN6P; higher = faster cleavage; RNA array
Summary of the method: as §1

glucosamine-6-phosphate [3] = variants of: B1; assay: self-cleavage kobs at 2500 uM GlcN6P; higher = faster cleavage; RNA array
Summary of the method: as §1

Variant | self-cleavage kobs at 640 uM GlcN6P (glucosamine-6-phosphate [1]) | self-cleavage kobs at 10000 uM GlcN6P (glucosamine-6-phosphate [2]) | self-cleavage kobs at 2500 uM GlcN6P (glucosamine-6-phosphate [3])
AUAAAAGCGCCAGAACUACAGAAAUGUAGUUGACGGGGAGGAUGUUUAUCGAAUUUUCGGCGGAUGCCUCCAAA | < 1e-05 s⁻¹ | < 1e-05 s⁻¹ | –
AUAAAAGCGCCAGAACUACAGAAAUGUAGUUGACGAAGAGGAGGUUUAUUUAAUUUUCGGCGGAUGCCUCCAAA | < 1e-05 s⁻¹ | – | < 1e-05 s⁻¹
AUAAAAGCGCCAGAACUACAGAAAUGUAGUUGACGGGGCGGAGGUUUAUCGUAUUUACGGCGGAUGCCUCCAAA | < 1e-05 s⁻¹ | – | –
AUAAAAGCGCCAGAACUACAGAAAUGUAGUUGACGGCGAGGAGGUCUAUCGAAUUUUCGGCGGAUGCCUCCAAA | < 1e-05 s⁻¹ | – | < 1e-05 s⁻¹
AUAAAAGCGCCAGAACUACAGAAAUGUAGUUGACGUGGAGGAGGUUUAUCGAGUUUUUGGCGGAUGGCUACAAA | 0.000184 ± 4.8e-05 s⁻¹ | – | 0.00115 ± 0.00026 s⁻¹
AUAAAAGCGCCAGAACUACAGAAAUGUAGUUGACGGGGAGGCGGUUUAUCGAAUUUCCUGCGGAUGCCUCCAAA | < 1e-05 s⁻¹ | – | < 1e-05 s⁻¹
AUAAAAGCGCCAGAACUACAGAAAUGUAGUUGACGCGGAGGAGUUUUAUCGAAUUUUCGGUGGAUGUCUCCAAA | < 1e-05 s⁻¹ | – | < 1e-05 s⁻¹
AUAAAAGCGCCAGAACUACAGAAAUGUAGUUGACGCGGAGGAGGUUUACCGAAUUUUCGGCGGAUGCCUCCAAA | < 1e-05 s⁻¹ | < 1e-05 s⁻¹ | –
AUAAAAGCGCCAGAACUACAGAAAUGUAGUUGACUAGGAGGAGGGUUAUCGAAUUUUCGGAGGAUGCCUCCAAA | < 1e-05 s⁻¹ | – | < 1e-05 s⁻¹
AUAAAAGCGCCAGAACUACAGAAAUGUAGUUGACUAGGAGGAGGUUAAUCGAAUUUUCGGCGGAUGCCUCCAAA | < 1e-05 s⁻¹ | – | < 1e-05 s⁻¹
AUAAAAGCGCCAGAACUACAGAAAUGUAGUUGACUAGGAGGAGGUUUAUCAAAUUUUCGGCGAAUGACUCCAAA | < 1e-05 s⁻¹ | – | < 1e-05 s⁻¹
AUAAAAGCGCCAGAACUACAGAAAUGUAGUUGACGCGGAGAAGGUUUAUGGAAUUUUGGGCGGAUGCCUCCAAA | < 1e-05 s⁻¹ | – | –
AUAAAAGCGCCAGAACUACAGAAAUGUAGUUGACGGGUAGGAGGUUUAUAGAAUUUUCGGCAGAUGCCUCCAAA | < 1e-05 s⁻¹ | – | –
AUAAAAGCGCCAGAACUACAGAAAUGUAGUUGACGCCGAGGAGGUAUGUCGAAUUUUCGGCGGAUGCCUGCAAA | < 1e-05 s⁻¹ | – | –
AUAAAAGCGCCAGAACUACAGAAAUGUAGUUGACGCGGAGGAGGUGUAUCGAAAGUUCGGCGGAUGCCUCCAAA | < 1e-05 s⁻¹ | – | –
AUAAAAGCGCCAGAACUACAGAAAUGUAGUUGACGGGGAGGAGGUUGAUCGAAUUUUCGGCGGAUGCCUCCAAA | < 1e-05 s⁻¹ | < 1e-05 s⁻¹ | –
AUAAAAGCGCCAGAACUACAGAAAUGUAGUUGACGUGGAGGAGGUUUAUCGUAUUUUCGGCGGAUGCCUCCAAA | < 1e-05 s⁻¹ | – | < 1e-05 s⁻¹
AUAAAAGCGCCAGAACUACAGAAAUGUAGUUGACCAGGAGGAGCCUUGUCGAAUUUUCGGCGGAUGCCUCCAAA | < 1e-05 s⁻¹ | – | < 1e-05 s⁻¹
AUAAAAGCGCCAGAACUACAGAAAUGUAGUUGACGUGGGGGAGGGUUAUCGAAUUUUCGGUCGAUGCCUCCAAA | < 1e-05 s⁻¹ | < 1e-05 s⁻¹ | < 1e-05 s⁻¹
AUAAAAGCGCCAGAACUACAGAAAUGUAGUUGACUAGGAGGAGGUUUAUCGAAUUUUCUCCUGAUGCCUCCAAA | < 1e-05 s⁻¹ | – | –
AUAAAAGCGCCAGAACUACAGAAAUGUAGUUGACGGGGCGGAGGUUGAUCGAAUUUUCGGCGGAUGCCUCCAAA | < 1e-05 s⁻¹ | < 1e-05 s⁻¹ | < 1e-05 s⁻¹

Variant | self-cleavage kobs at 640 uM GlcN6P (glucosamine-6-phosphate [1]) | self-cleavage kobs at 10000 uM GlcN6P (glucosamine-6-phosphate [2]) | self-cleavage kobs at 2500 uM GlcN6P (glucosamine-6-phosphate [3])
AUAAAAGCGCCAGAACUACAGAAAUGUAGUUGACGCGGAGGAGGUUUAUCGAAGUUUCGGCGAAUGCCUCCAAA | < 1e-05 s⁻¹ | – | –
AUAAAAGCGCCAGAACUACAGAAAUGUAGUUGACGCAGAGGAGGUUUAUCGAAUUUUCGGCGGGUGCCUCCAAA | < 1e-05 s⁻¹ | – | –
AUAAAAGCGCCAGAACUACAGAAAUGUAGUUGACGCGGAUGAGGUUUAUCGAAAUUUCGGCGUAUGCCUCCAAA | < 1e-05 s⁻¹ | < 1e-05 s⁻¹ | < 1e-05 s⁻¹
AUAAAAGCGCCAGAACUACAGAAAUGUAGUUGACGUGGAGGAGGUUUAUCGAAUCUUCGUCGGAUGCCUCCAAA | < 1e-05 s⁻¹ | – | –
AUAAAAGCGCCAGAACUACAGAAAUGUAGUUGACUAGGAGGAGGUUUAUCGAAUUUACGGCGGAUGCCUCCAAA | < 1e-05 s⁻¹ | < 1e-05 s⁻¹ | –
AUAAAAGCGCCAGAACUACAGAAAUGUAGUUGACGGGGAGGAAGUUUAUCGAAUUUUCUGCGGAUGCCUCCAAA | < 1e-05 s⁻¹ | – | < 1e-05 s⁻¹
AUAAAAGCGCCAGAACUACAGAAAUGUAGUUGACGUGGAGGAAGUUUAUCGAAUUUUCGGCGGAUGCCUCCAAA | < 1e-05 s⁻¹ | < 1e-05 s⁻¹ | < 1e-05 s⁻¹
AUAAAAGCGCCAGAACUACAGAAAUGUAGUUGACGUGAAGGAGGUUUAUCGUAUUUUCGGCGGAUGGCUCCAAA | 4.67e-05 ± 1.8e-05 s⁻¹ | – | 4.17e-05 ± 2.1e-05 s⁻¹
AUAAAAGCGCCAGAACUACAGAAAUGUAGUUGACGUGGAGUAGGUUUAUCGAAUAUUCGGCGGAUGCCUCCAAA | < 1e-05 s⁻¹ | – | < 1e-05 s⁻¹
AUAAAAGCGCCAGAACUACAGAAAUGUAGUUGACGUGGAGGAGGAUUAUUGAACUUACGGCGGAUGCCUCCAAA | < 1e-05 s⁻¹ | – | < 1e-05 s⁻¹
AUAAAAGCGCCAGAACUACAGAAAUGUAGUUGACGCGGAGGGAGUUUAUCGAAUUUUCGGCGGAUGGCUCCAAA | < 1e-05 s⁻¹ | – | –
AUAAAAGCGCCAGAACUACAGAAAUGUAGUUGACUAGGAUGAGGUUUAUCGAAUUUUCGGCGUAUGCCUCGAAA | < 1e-05 s⁻¹ | – | –
AUAAAAGCGCCAGAACUACAGAAAUGUAGUUGACCAGGAUGAGGUUUAUCGUAUUUUCGGCGUAUGCCUCCAAA | < 1e-05 s⁻¹ | – | < 1e-05 s⁻¹
AUAAAAGCGCCAGAACUACAGAAAUGUAGUUGACGCGGAGUAGGUUUAUCGAAUUUUCGGCGGCUGCCUCCAAA | < 1e-05 s⁻¹ | – | < 1e-05 s⁻¹
AUAAAAGCGCCAGAACUACAGAAAUGUAGUUGACCAGGAAGAGGUGUAUCGAAUUUUCGGCGGAUACCUCCAAA | < 1e-05 s⁻¹ | – | < 1e-05 s⁻¹
AUAAAAGCGCCAGAACUACAGAAAUGUAGUUGACUAGGAGGAUGUUUAUCGAAUUUUCGACGGAUGCCUCCAAA | < 1e-05 s⁻¹ | – | < 1e-05 s⁻¹
AUAAAAGCGCCAGAACUACAGAAAUGUAGUUGACGGGGAGGAGGUUUAUCCAAUUUUCGGCGGAUGCCUCGAAA | < 1e-05 s⁻¹ | – | < 1e-05 s⁻¹
AUAAAAGCGCCAGAACUACAGAAAUGUAGUUGACUGGGAGGAGGUUUAUCGAAUUUUCGGAGGAUGCCUCCAAA | < 1e-05 s⁻¹ | – | –
AUAAAAGCGCCAGAACUACAGAAAUGUAGUUGACGUGGAGGAGGUUUAUGGAAUUUUCGGCGGAUUCCUCCAAA | 0.00107 ± 0.0003 s⁻¹ | – | –
AUAAAAGCGCCAGAACUACAGAAAUGUAGUUGACGUGGAGGAGGUCUAUUGAAUUUUUCGCGGAUGACUCCAAA | < 1e-05 s⁻¹ | – | –
AUAAAAGCGCCAGAACUACAGAAAUGUAGUUGACUAGGAGAAGGUUUAUCGAAUUUUCGGCGGGUGCCUCCAAA | < 1e-05 s⁻¹ | – | < 1e-05 s⁻¹
